Measured values from US20120172298A1, “GLP-1 AND FGF21 COMBINATIONS FOR TREATMENT OF DIABETES TYPE 2” (Novo Nordisk A/S, priority 2009, published 2012).

What was measured:
[1] = tested on: rat insulinoma beta-cells (INS-1); assay: Cell viability of INS-1 beta-cells exposed to free fatty acids (MTT assay); assay type: cell-based; settings: 48 hours, FGF21 compound = F1 50 nM, GLP-1 compound = G1 50 nM, mean +/- SEM
Experimental: (§1) This ex vivo example investigates the influence of FGF21 and GLP-1 compounds on FFA (free fatty acid) induced apoptosis of rat insulinoma beta-cells (INS-1).
(§2) Compound F1 (Prospec, cat. no. CYT-474) was used as the FGF21 compound, and compound G1 was used as the GLP-1 compound.
(§3) INS-1 cells were seeded in 96-well plates (50000 cells/well) and incubated overnight in cell medium (RPMI 1640 medium (Gibco, cat. no. 61870-010), supplemented with 10% FCS (Gibco, cat. no. 10085-140), 1% Pen/Strep (Gibco, cat. no. 15140-114) and 0.5 ml beta-mercaptoethanol (Gibco, cat. no. 31350-010 (50 mM)). The FGF21 compound (50 nM) and the GLP-1 compound (50 nM) were added to the cells 1 hour before the cells were to be exposed to FFA. The FFA's were prepared as follows: Stock solutions of palmitic acid (Sigma P5585) and oleic acid (Sigma 01383) of 1M in DMSO were mixed 1:2 and heated to 60 degree Celsius. The FFA mix was then diluted 10 times in 0.1M NaOH. This mixture was then further diluted in cell medium to yield a FFA concentration of 1 mM. The FFAs were then added to the cells to a final concentration of 0.35 mM. […]

[2] = tested on: db/db mice; assay: Effect on blood glucose in vivo, subchronic study in db/db mice; settings: F1 0.5 mg/kg, G1 30 nmol/kg or both
Experimental: This subchronic in vivo dosing study investigates the effect of GLP-1 and FGF21 compounds on blood glucose. The study was performed in db/db mice (as described in Example 5).
48 db/db mice, male, 11-12 weeks of age at study start.
Dosed subcutaneously 2 × daily with either (i) 0.5 mg/kg human FGF21 (compound F1; n=12); (ii) 30 nmol/kg of GLP-1 compound G1 (n=12); (iii) a combination of 0.5 mg/kg of compound F1 and 30 nmol/kg of compound G1 (n=12); or (iv) vehicle (sterile PBS buffer, n=12).
All groups were dosed for 21 days.
Blood samples of 10 μl were taken from the tip of the tail for blood glucose measurements once weekly.

[3] = tested on: rat insulinoma beta-cells (INS-1); assay: FFA induced apoptosis of INS-1 beta-cells (Caspase-3/7 assay); assay type: cell-based; settings: 48 hours, FGF21 compound = F1 50 nM, GLP-1 compound = G1 50 nM, mean +/- SEM
Experimental: as §1, §2, §3

B1: Met-FGF21_human (protein, listed as Homo sapiens)
chain: HPIPDSSPLLQFGGQVRQRYLYTDDAQQTEAHLEIREDGTVGGAADQSPESLLQLKALKPGVIQILGVKTSRFLCQRPDGALYGSLHFDPEACSFRELLLEDGYNVYQSEAHGLPLHLPGNKSPHRDPAPRGPARFLPLPGLPPALPEPPGILAPQPPDVGSSDPLSMVGPSQGRSPSYAS
modifications: N-terminal Met; mat_peptide (1)..(181); DISULFID (75)..(93)
Cell viability (MTT assay, A550) ([1]; FFA 0.00 mM): 1.19 +/− 0.05
Cell viability (MTT assay, A550) ([1]; FFA 0.35 mM): 0.28 +/− 0.01
Blood glucose ([2]; Day 0, s.c. 2 × daily): 19.9 ± 1.2 mmol/L
Blood glucose ([2]; Day 7, s.c. 2 × daily): 17.2 ± 1.3 mmol/L
Blood glucose ([2]; Day 14, s.c. 2 × daily): 16.2 ± 1.8 mmol/L
Blood glucose ([2]; Day 21, s.c. 2 × daily): 19.2 ± 3.0 mmol/L
Apoptosis (Caspase 3/7 assay, fluorescense) ([3]; FFA 0.00 mM): 1827 +/− 22
Apoptosis (Caspase 3/7 assay, fluorescense) ([3]; FFA 0.35 mM): 33278 +/− 1254
